Data taken from the DeepSol protein solubility set.

Test: soluble on expression in E. coli; label from the status in PepcDB or PDB records

Sequence: RRLIRLSDKTIAKSLNTSKFGGDELRRIGFHIRFHRAGALFARCWLLVEGETEVWLFNELARQCGYDLAAEGVQIVEFAQSGLRSLIKVAKEFGIDWHVVTDGDPAGKKYAHTVRAQLGHDQERHRLTELPDRDIEHFLYNHGFELFFKDMIKVPHDHPIPAKKVVNRVLKKHAKPDLALAIVSHCEEKGMECIPVLLRWTLKRIVTMASGNT
- soluble on expression in E. coli: not soluble

Sequence: MSNSFEILMNQLGMPAEMRQAPALAQANIERVVVHKISKVWEFHFVFSNILPIEIFLELKKGLSEEFSKTGNKAVFEIKARSQEFSNQLLQSYYREAFSEGPCASQGFKSLYQNLQVRAEGNQLFIEGSEAIDKEHFKKNHLPNLAKQLEKFGFP
- soluble on expression in E. coli: not soluble

Sequence: MDISRRNFLKSTASFGAIASLGLPGYSLAAPSNDFRALICVYLAGGNDAINTILPLSDFHYNQYANVRGSLSVAKNTIIPIRLNAHDANNNAVPLGLHPKLSALAPLFQQGDANLVLNSGILNQPVTKQAIEQGDVPLPEQLFSHNSQTASWLRGGMDASTNLGWAGRMLDVLTSDAQITPLYSVHGDTLWLKAMEHRQTVLKKDKAVQLTAVGNPLYEEVYQKLLSQSADNPFSGHFNLMVDESMMMSNILAEQLKLIDDAPLFSSSTLGKQMQTVYKLIASQSALSQQRQVFFVKHTGYDLHDSQLARHPLLLEDLATNLNAMYRAVDKLGMSKNVTTFTMSDFGRRMTNNGNGTDHGWGGHQLLIGGAVNGSAPIGTWPELTLGGQDDYSKGRLIPAIAADQVGSTLAQWMGVSDNAALEYVFPNIRNFTTSNLGFMA
- soluble on expression in E. coli: not soluble

Sequence: MQLSKALSLRRVLNSGFHPFQVIPKPDVWMKRERLNRFTAWQYASERSTVKGAYRKEDKIFAYLNMQRQDERNLEKFHAEERVRTALEEHDMEYSKFKSILSQSHILLDNICLSQLAIYEPRSFRSLVAFAKELARQEGMNVIPDDAEFSYDVHVDNKSVLRKPLPRAVEYTRGASENHTNKPRKLREDEY
- soluble on expression in E. coli: not soluble

Sequence: MSLGSMGPAQFVGRQTLATTPMGDVEIGLQERNGQLEVDIIQARGLTAKPGSKTLPAAYIKAYLLENGICIAKKKTKVARKSLDPLYNQVLLFPESPQGKVLQVIVWGNYGRMERKQFMGVARVLLEELDLTTLAVGWYKLFPTSSMVDPATGPLLRQASQLSLESTVGPCGERSEGHHHHHH
- soluble on expression in E. coli: soluble

Sequence: MSRPTIIINDLDAERIDILLEQPAYAGLPIADALNAELDRAQMCSPEEMPHDVVTMNSRVKFRNLSDGEVRVRTLVYPAKMTDSNTQLSVMAPVGAALLGLRVGDSIHWELPGGVATHLEVLELEYQPEAAGDYLL
- soluble on expression in E. coli: soluble

Sequence: MGSDKIHHHHHHGEDEKKPEIVVDPAEKTIEYYIAGKVTEGTTALSGVEVKAGEVTATTDAEGAYKLTVDSKKMYTVTFSKEGYMSIDNATATIADNAANRSMVSLSVKLSKKAPEKEVKADAEEEVVVTDKGDSNISQAEAAVIIPPKAIETTTTVSVTPYEEPAAVTTTVTPGNNVETPVAIANIEVETAKEVTLAKPVTLAIINKASEHTTFENVEVYNQKTTTRAGENWNKVADAIYDSETNSYKFTLPAGASLSGKYSMRVKSSKTTGKERIGETNKEEKKSNEGNMTAIPEYKINFEATAGWEYTVSPEKALMNAGVDAADAQGMATTINSAIEAQEGTTGTYKVAHELIAGISGNHILYYLNQAKYCEKTYTFKISGGRTVTITLKFYTGMQITYTNVEASQHSGGKI
- soluble on expression in E. coli: not soluble

Sequence: MGSDKIHHHHHHMKNFVVTTSHKPDREQVMKAKELAEKLGTIYVSRRRLKEFKVDFYYVVEKNRISIKWPGGEFFFHPSSAILRMRNIRSGQKDYLIESLQPEGNEIVLDTTFGLGSEAILMAAFLPEGKVIGLEGSIHIYTIVKYGMENFETDIRWLKDALKRIELYHANFKEYIRSQPDNSFDVVYCDPMFENPVYESSAMNPLRPFAVYDTVNEEDIEEMLRIAKKKVILKSHVKDSLFKRIRVDELKGSRKSGVLYGVIYKR
- soluble on expression in E. coli: not soluble

Sequence: MGSDKIHHHHHHAGLDAVEIGTGGNPGNHHCPTDELLASEAARKEYLEKFTSRGLTISAFSCHDNPISPNKEEAAASDEILRKSIKLASLMNVPVVNTFSGTAGDSDDAKAPNWPVIPWPTVYSDIKTWQWETKLIPYWKEIGELAAASGVKIGIELHGGFLCHTPYTILKLREETNDAIGVNLDPSHLWWQGIDPVGAIKILGKAGAIHHFHAKDTYLDQDNINMYGLTDMQPYGDVQTRSWTFRSVGCGHSLTEWSDIMSALRTYGYDYVVSIEHEDPLMSIDEGFDRAVTNLQSILIKDKPLDMWWA
- soluble on expression in E. coli: not soluble

Sequence: SSNKEGSGGFRKRKHDNFPHNQRREGKDVNSSSPVMLAFKSFQQELDARHDKYERLVKLSRDITVESKRTIFLLHRITSAPDMEDILTESEIKLDGVRQKIFQVAQELSGEDMHQFHRAITTGLQEYVEAVSFQHFIKTRSLISMDEINKQLIFTTEDNGKENKTPSSDAQDKQFGTWRLRVTPVDYLLGVADLTGELMRMCINSVGNGDIDTPFEVSQFLRQVYDGFSFIGNTGPYEVSKKLYTLKQSLAKVENACYALKVRGSEIPKHMLADVFSVKTEMIDQEEGIS
- soluble on expression in E. coli: soluble

Sequence: SMRPPIVIHSSGKKYGFSLRAIRVYMGDSDVYTVHHVVWSVEDGSPAQEAGLRAGDLITHINGESVLGLVHMDVVELLLKSGNKISLRTTALENTETSV
- soluble on expression in E. coli: soluble

Sequence: QRDDVTGVQTLAGNLDPTQWTKTKSLSPLSGSLDPLDYTQRLALIPQRHFSGAGDEMIPTELAERYNRLLGNTACSQLIIVAGATHETGWEEAWKVWRGL
- soluble on expression in E. coli: not soluble

Sequence: SAVPAILQVITESTGLGFAAVARVTEDSWTACAVLDNLGFGLKPGGELELISTICHEIRASHKPVVIDHVAEDELFCAHHTPRRYNFQSYISIPIFLTDGSFFGTICALDPKPAKLTGTPIEAMMVSFARLLALQIEAEENMQRVQ
- soluble on expression in E. coli: soluble

Sequence: MHPGIDSMSSNINCENNPFSFYGNPHKSVIIHGKEGTELLKEKGEDCKTFENSQQYFLWCCVQQQMYHYQLLSTAFASYGFEPPRIPGAFPHHIPPIFNGSMKCLRDREVFNQSGFLYVNVSPDTYQETRQEAPVEQRNQWSEKSKTTSKKSICKVLFECTNSSLLENAENRSIFSKQGSGSHVGENSKNPSEDSGQSGRLSQNATAEHNVLEKHLQEEYQMAKNTVNESFDSLKECSAASVIKGSYLLSQVVHIPEDAIEPEIPPDLQGPGGHVFLRMLSRSWRQYKRALEHNE
- soluble on expression in E. coli: not soluble

Sequence: MSLEIIKTGLAAFGMSGQVFHAPFISTNPHFELYKIVERSKELSKERYPQASIVRSFKELTEDPEIDLIVVNTPDNTHYEYAGMALEAGKNVVVEKPFTSTTKQGEELIALAKKKGLMLSVYQNRRWDADFLTVRDILAKSLLGRLVEYESTFARYRNFIKPNTWKETGESGGGLTYNLGSHLIDQAIQLFGMPEAVFADLGILREGGKVDDYFIIHLLHPSLAPNVKITLKASYLMREAEPRFALHGTLGSYVKYGVDKQEAALLAGEIPERPNWGEESEQEWGLLHTEINGKEICRKYPGIAGNYGGFYQNIYEHLCLGQPLETHAQDILNVIRIIEAAYQSHRENKIVNLKEGHHHHHH
- soluble on expression in E. coli: soluble

Sequence: MGHHHHHHSHMSERSVSKRTEQKRWYTVQAPEQFDREVLGKTPAEEPDKVLGRTIETTLGELTNDASENNTKLTFKINEVASDSAYTEFIRHELTRDYLRSLVRRGSSKVEAYITVLTTDDYRVQIQPVAVTTKKADASQEKAIRRTMIDLVRETAEDHTFEQLIDSVVEGRLSSAIYGEAKDIYPLRRVEIKKTTLEARPEEVAAEEETAVDVDEEDVDVEA
- soluble on expression in E. coli: soluble

Sequence: MNWGEGEWNSFFHFFTKEFINMSESFKELFEQSIAGAQFYPGAIITAKVIDIDDDFVTLNAGLKSEGIVAVEEFYDKNGELEVKVGDTVEVALDSVEDGHGETLLSREKAKRQEAWRKLSKCHENNETVTGLISGKVKGGFTVEIGSIRAFLPGSLVDVRPVRDPSYLEGKELEFKVIKMDLKRNNIVVSRRAVVEEESSADRQALLESLHDGQELHGIVKNLTDYGAFIDLGGIDGLLHITDISWKRVKHPSEVLSVGQDVKVKVLSFDSERNRVSLGMKQLGNDPWVDLVERYPIGKRLQGKVTNITDYGCFVEIEEGVEGLVHMSEMDWTNKNVHPSKVVSLGDVVDVMVLEIDEERRRISLGMKQCVGNPWQQFASTHNKGEKVKGKIRSITDFGIFIGLDGDIDGLVHLSDISWTVPGEEAVKQFKKGQELEAVILAIDPERERISLGLKQLEGDSFASFAETYTKGSIVKGTVTAVEPKTVTVALAEDVSGTIRVSELSDERVDDATTIVKVGDEVEAKITNIDRKNRTISLSVKAKDAQDEADAIKKYSRTEAASTTLGDLLKEKMASKEGELEHHHHHH
- soluble on expression in E. coli: soluble

Sequence: GMSRDRLYTWAGLWRSPSSSWEALRLEDDQAESQLRAPDERSGLPYQLDYRLRWDADWHLREAVFHVESETGVRKLHLLADGRGHWQDGDGEALPAFDGCLDIDIWPSPFTNTFPIRRLGLADGQRAEIRALYIEAPALEPRSMRQAYTRLDASHYLYENLEGSAFKAVLLVDEQGLVIDYPGLFQRL
- soluble on expression in E. coli: soluble

Sequence: MIDVRKYIDNAALKPHLSEKEIEEFVLKSEELGIYAVCVNPYHVKLASSIAKKVKVCCVIGFPLGLNKTSVKVKEAVEAVRDGAQELDIVWNLSAFKSEKYDFVVEELKEIFRETPSAVHKVIVETPYLNEEEIKKAVEICIEAGADFIKTSTGFAPRGTTLEEVRLIKSSAKGRIKVKASGGIRDLETAISMIEAGADRIGTSSGISIAEEFLKRHLILEHHHHHH
- soluble on expression in E. coli: soluble

Sequence: MSLKTKYIFVTGGVVSSLGKGITAASLGRLLKNRGLKVSIQKFDPYINVDPGTMSPYQHGEVFVTDDGAETDLDLGHYERFIDENLSKNSNVTTGKVYWSVINKERRGDYLGGTVQVIPHITNELKERVYRVAKEKDVDVVITEIGGTVGDIESLPFLEAIRQIKYEVGFGNSCFIHVTLLPYLRKAGEIKTKPTQHSVKELRGIGIQPDIIVCRTEKEISKDVRSKIGLFCNIDGDSVISNLDAENLYEVPLMLHDQGLDSLVCKKLELECQEVDNSEWESMVKNIKSLSGEVTIGLVGKYVELHDAYISVVESLNHGGFANNVSVNVKWINSEEVTKDNVDSVLSDVDGILVPGGFGDRGIEGKIEAIRWARENKIPFFGICLGMQCAVIEYARNVLGLEGAHSSEIDPQTKYPVIDLMPDQKDIDDKGGTMRLGLYACKLSKDTNAYDAYEEEVIYERHRHRYEFNNEFRKRLTEEGLILAGTSPDDRLVEIVEIKDHPWFVGVQFHPEFKSRPNRPHALFRDFIKVACTVKEKEGHHHHHH
- soluble on expression in E. coli: soluble

Sequence: MSLRIKLLLRFKPPFLIPYNYPRYLYSFLLRAIELADKEVAGRIHNNKRDIKFVASKFMPIGSTKRLEQGLLVESGTVELYVGSTEDIILESLVRGLGQGVGMLHVRGQRLLSYEAELEEIPKHLSGKRFKTLSPVSVYHNNPPNGFRQWDLSPVGPPNSPFENEPKVWKELLFENLKSKYMMVYGEPYEGSFDIRVLTKKPKSRRLLVKIDERTGKPIYARVWEFDFKMWGEEELLRVAYELGIGMRNPHGFGMVEVIEGHHHHHH
- soluble on expression in E. coli: soluble

Sequence: MGSDKIHHHHHHMTQLELLLERIIDRVNVNLRHQKFDVGDYVRRQTPHLHYSKFYAFYGLSADDPVHFHFKNSSLAGSYLLGRVNVLHSALYKSDIRGDELKRKGQHFVCDGKMIPLHDDEVITIKDSFLNKTLVHSNSHDPESPEEFTIRNTVAMPYANIHGSLTEGSFIGSFATVDLSTIHNSVVRYFSYVQTGELVGKCVEPGQIWIKSGDELEFHYSFDKAILDKYISQEAGSCPTGVLMEFVEVRQEDFEEVFASGHMASGAGSASGASVSGYAVIKGDTVIGENVLVSQRAYLDNAWMGKGSNAQENCYIINSRLERNCVTAHGGKIINAHLGDMIFTGFNSFLQGSESSPLKIGDGCVVMPHTIIDLEEPLEIPAGHLVWGYIRNKADLAAHSISFEEFAKVDGEVTMGRMTFRGKGGPFLDSFKKRIKRILSENGAFFDGSEGTGHAQKGKNFTFNIIQPYQDGDPRGMYPTILIQPNNGS
- soluble on expression in E. coli: not soluble
